17 molecules from patent publication US20240116985A1 (published 2024) can be followed below.

Starred links: 1 amine or outer side, 2 acyl side, 3 side chain; linkers in the order of their positions; H or OH if unused. Positions of bridges follow the written chain, without caps; N, C: chain ends. Non-standard residues stand in square brackets, D forms with d. Primed or numbered codes have the meaning given here. *: point of attachment. PyrS2″ = (S)-3-amino-1-((pent-4-en-1-yloxy)carbonyl)pyrrolidine-3-carboxylic acid (stapling residue), C=CCCCOC(=O)N1CC[C@@](N[*:1])(C(=O)[*:2])C1; B5(24) = 2-amino-2-(pent-4-en-1-yl)hept-6-enoic acid, 2,2-bis(4-pentenyl)glycine (stitching residue), C=CCCCC(CCCC=C)(N[*:1])C(=O)[*:2]; B5(4) = 2,2-bis(4-pentenyl)glycine = 2-amino-2-(pent-4-en-1-yl)hept-6-enoic acid (stitching residue), C=CCCCC(CCCC=C)(N[*:1])C(=O)[*:2]; PyrS = (S)-1-((allyloxy)carbonyl)-3-aminopyrrolidine-3-carboxylic acid, C=CCOC(=O)N1CC[C@@](N[*:1])(C(=O)[*:2])C1; B5 = 2-amino-2-(pent-4-en-1-yl)hept-6-enoic acid, C=CCCCC(CCCC=C)(N[*:1])C(=O)[*:2]; Phe(3-COOH) = N[C@@H](Cc1cccc(C(=O)O)c1)C(=O)O; Bta = N[C@@H](Cc1csc2ccccc12)C(=O)O; αAllylPro = C=CC[C@@]1(C(=O)O)CCCN1; Azidoacetyl = [N-]=[N+]=NCC(=O)*; tBuAla = CC(C)(C)C[C@H](N)C(=O)O; R8 = C=CCCCCCC[C@@](C)(N)C(=O)O; 3Thi = N[C@@H](Cc1ccsc1)C(=O)O; S8 = C=CCCCCCC[C@](C)(N)C(=O)O; Nicotinoyl = O=C(c1cccnc1)*; PhAc = O=C(Cc1ccccc1)* A value given as a limit tells only on which side of the number the result lay.

To fix the notation:
T1: Bcat-Halo (UniProt P35222 1-781)
T1 sequence (looked up): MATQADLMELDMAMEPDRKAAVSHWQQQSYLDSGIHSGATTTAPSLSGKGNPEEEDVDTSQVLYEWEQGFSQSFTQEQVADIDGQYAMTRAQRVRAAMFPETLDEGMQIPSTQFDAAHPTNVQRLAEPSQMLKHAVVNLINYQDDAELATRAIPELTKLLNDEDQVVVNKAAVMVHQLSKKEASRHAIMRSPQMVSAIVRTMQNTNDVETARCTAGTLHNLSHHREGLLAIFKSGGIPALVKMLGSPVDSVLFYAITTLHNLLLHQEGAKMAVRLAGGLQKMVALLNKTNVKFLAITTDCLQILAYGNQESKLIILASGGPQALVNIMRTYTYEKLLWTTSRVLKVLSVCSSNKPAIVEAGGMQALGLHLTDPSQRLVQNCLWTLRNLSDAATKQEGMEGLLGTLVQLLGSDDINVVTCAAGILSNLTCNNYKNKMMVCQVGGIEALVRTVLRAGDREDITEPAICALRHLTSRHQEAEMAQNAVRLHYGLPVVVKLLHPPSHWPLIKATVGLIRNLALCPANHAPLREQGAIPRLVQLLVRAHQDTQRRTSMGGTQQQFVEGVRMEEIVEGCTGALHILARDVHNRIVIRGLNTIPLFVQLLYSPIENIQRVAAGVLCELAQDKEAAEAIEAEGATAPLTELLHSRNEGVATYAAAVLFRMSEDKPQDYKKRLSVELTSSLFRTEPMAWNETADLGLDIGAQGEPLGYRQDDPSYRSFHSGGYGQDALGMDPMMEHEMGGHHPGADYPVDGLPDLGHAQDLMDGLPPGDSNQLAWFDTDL

T2: full-length beta-Catenin (Uniprot ID P35222) (Homo sapiens (Human), UniProt P35222 1-781)
T2 construct: The assay text says 'full-length beta-Catenin (Uniprot ID P35222)'; also called bCat; B-Catenin
T2 sequence: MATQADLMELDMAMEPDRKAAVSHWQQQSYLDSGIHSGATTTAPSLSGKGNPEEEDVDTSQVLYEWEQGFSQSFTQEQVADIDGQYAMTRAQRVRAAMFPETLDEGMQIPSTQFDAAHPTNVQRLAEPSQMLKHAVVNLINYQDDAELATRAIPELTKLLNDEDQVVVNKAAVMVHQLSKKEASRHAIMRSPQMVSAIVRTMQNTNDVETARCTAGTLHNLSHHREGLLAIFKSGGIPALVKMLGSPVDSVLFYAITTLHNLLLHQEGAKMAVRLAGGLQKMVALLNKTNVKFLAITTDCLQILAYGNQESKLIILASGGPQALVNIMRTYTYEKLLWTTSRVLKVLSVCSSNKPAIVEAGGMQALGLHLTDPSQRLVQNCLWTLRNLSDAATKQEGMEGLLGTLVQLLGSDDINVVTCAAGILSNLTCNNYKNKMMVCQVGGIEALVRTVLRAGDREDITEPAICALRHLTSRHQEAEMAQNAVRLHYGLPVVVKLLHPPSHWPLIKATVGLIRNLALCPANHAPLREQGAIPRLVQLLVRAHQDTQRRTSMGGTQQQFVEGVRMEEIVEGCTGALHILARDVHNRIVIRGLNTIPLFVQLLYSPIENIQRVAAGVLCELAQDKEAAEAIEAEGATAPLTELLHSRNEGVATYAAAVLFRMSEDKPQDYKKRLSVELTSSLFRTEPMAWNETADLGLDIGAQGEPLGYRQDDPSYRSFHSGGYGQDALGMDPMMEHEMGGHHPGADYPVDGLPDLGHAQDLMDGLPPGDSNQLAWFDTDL

B1: I-597 (peptide)
peptide: Ac-[αAllylPro]DI[B5]DEAAFQ[S8]F[Bta]QK(Azidoacetyl)-NH2
modifications: staple 1-4, 4-11; not fully specified
notes: Stapled peptide composition; same description as I-596, later eluting HPLC peak (staple isomer)
B2: I-598 (peptide)
peptide: Nicotinoyl-[αAllylPro]DI[B5]DEAAFQ[S8]F[Bta]Q-NH2
modifications: staple 1-4, 4-11
notes: Stapled peptide composition; N-terminal cap Nic
B3: I-589 (peptide)
peptide: XDKXDEAAFQXFXQ
modifications: not fully specified; Ac-PL3-Asp-[AzAc]Lys-B5-Asp-Glu-Ala-Ala-Phe-Gln-S8-Phe-BztA-Gln-NH2; stapled PL3(1)-B5(4) and B5(4)-S8(11) by olefin metathesis
notes: Stapled peptide composition; same description as I-590, earlier eluting HPLC peak (staple isomer)
B4: I-591 (peptide)
peptide: Ac-[αAllylPro]DI[B5(4)]DEK(Azidoacetyl)AFQ[S8]F[Bta]Q-NH2
modifications: staple 1-4, 4-11; not fully specified; printed as Ac-PL3-Asp-Ile-B5-Asp-Glu-[AzAc]Lys-Ala-Phe-Gln-S8-Phe-BztA-Gln-NH2
notes: Stapled peptide composition
B5: I-579 (peptide)
peptide: Ac-FDA[R8]DDAAFQ[PyrS]FWQ-NH2
modifications: staple 4-11; not fully specified; printed as Ac-Phe-Asp-Ala-R8-Asp-Asp-Ala-Ala-Phe-Gln-PyrS-Phe-Trp-Gln-NH2
notes: Stapled peptide composition
B6: I-577 (peptide)
peptide: XDLXDEAAFNXFXQ
modifications: not fully specified; Ac-PL3-Asp-Leu-B5-Asp-Glu-Ala-Ala-Phe-Asn-S8-Phe-BztA-Gln-NH2; stapled PL3(1)-B5(4) and B5(4)-S8(11) by olefin metathesis
notes: Stapled peptide composition; same description as I-576, later eluting HPLC peak (staple isomer)
B7: I-600 (peptide)
peptide: PhAc-[αAllylPro]DI[B5]DEAAFQ[S8]F[Bta]Q-NH2
modifications: staple 1-4, 4-11
notes: Stapled peptide composition; N-terminal cap Bnc

For one assay, the target named is T1, Bcat-Halo. As to the kind of experiment: cell-based or functional assay.
Regarding Ac-[αAllylPro]D[tBuAla][B5(4)]D[Phe(3-COOH)]A[dA]FL[PyrS2″][3Thi][Bta]A-NH2 (staple 1-4, 4-11; also: earlier-eluting HPLC isomer composition) [I-2096], the “NanoBRET Abs IC50” value is more than 20000 nM.

Take Ac-[αAllylPro]D[tBuAla][B5(4)]D[Phe(3-COOH)]A[dA]FL[PyrS2″][3Thi][Bta]A-NH2 (staple 1-4, 4-11; also: later-eluting HPLC isomer composition) [I-2097]: the “NanoBRET Abs IC50” value came to 22300 nM.

In another assay the target is T2, full-length beta-Catenin (Uniprot ID …). As to the kind of experiment: fluorescence polarization competition; full-length beta-catenin, competitor 5FAM-TCF4(10-53) probe. The procedure: The plate was incubated protected from light for 60 minutes at 20° C. prior to read. Reads were performed on a CLARIOstar plate reader (BMG Labtech) in duplicate, and data were fitted to a 1:1 binding model with hill slope using an in-house script. All provided concentrations are final concentrations.
A general note: Polarisation of emitted light reports the rotation of a fluorescent probe.
The term EC50 denotes the concentration needed to bring the measured effect to its halfway point. As to B1, the EC50 came to 76 nM.

Consider Ac-[αAllylPro]DI[B5(24)]DEAA[Bta]Q[S8]FFQ-NH2 (staple 1-4, 4-11; not fully specified, Stapled peptide composition) [I-585], for which the EC50 is 5000 nM.

For B2, the EC50 was found to be 845 nM.

With Ac-[αAllylPro]DI[B5]DEAK(Azidoacetyl)FQ[S8]F[Bta]Q-NH2 (staple 1-4, 4-11, Stapled peptide composition) [I-593], the EC50 is 68 nM.

In the case of B3, a half-maximal effect (EC50) was put at 48 nM.

Regarding Ac-[αAllylPro]DI[B5]DQAAFQ[S8]F[Bta]Q-NH2 (staple 1-4, 4-11, Stapled peptide composition) [I-603], it took 392 nM to reach a half-maximal effect (EC50). Compared with the last molecule, the EC50 is about 8.2-fold higher.

For the molecule B4, the EC50 is 64 nM. This EC50 is about 6.1-fold lower than that of the molecule before.

Regarding Ac-[αAllylPro]DI[B5]DEAAFK(Azidoacetyl)[S8]F[Bta]Q-NH2 (staple 1-4, 4-11, Stapled peptide composition) [I-594], a half-maximal effect (EC50) was put at 87 nM.

As to Ac-[αAllylPro]DI[B5]DEAAFQ[S8]F[Bta]K(Azidoacetyl)-NH2 (staple 1-4, 4-11, Stapled peptide composition) [I-595], the EC50 stood at 57 nM.

On to Ac-[αAllylPro]DK(Azidoacetyl)[B5(4)]DEAAFQ[S8]F[Bta]Q-NH2 (staple 1-4, 4-11; not fully specified, Stapled peptide composition) [I-590], for which the EC50 is 45 nM. This EC50 and that of the molecule before are within 1.5-fold of each other.

The molecule Ac-[αAllylPro]DI[B5]DEK(Azidoacetyl)AFQ[S8]F[Bta]Q-NH2 (staple 1-4, 4-11; not fully specified, Stapled peptide composition) [I-592] showed an EC50 of 24 nM.

Turning to B5, the EC50 is 5000 nM.

With B6, the EC50 amounted to 13 nM.

Take B7: the 50% effective concentration (EC50) worked out at 796 nM.

Consider Ac-[αAllylPro]FI[B5(24)]DEAADQ[S8]F[Bta]Q-NH2 (staple 1-4, 4-11, Stapled peptide composition) [I-588], for which the EC50 came to 5000 nM.
